Usually EC50 stands for the midpoint of the concentration-response curve.

From patent publication US20250388669A1 (published 2025) come the findings set out here.

The target in one experiment is CD3 (human). Nature of the experiment: CD3 binding, as described in Example 2 (ELISA or FCM). On the technique in general: In an ELISA, binding on a coated surface is turned into a signal by an enzyme label.
The next experiment has as its target T1, CD137 (human, UniProt Q07011 24-186).
T1 construct: In the reporter assay it is whole, on GS-H2-huCD137 cells; also called 4-1BB; huCD137
Nature of the experiment: CD137 binding, FCM or ELISA.

The target in experiment [1] is T2, B7H3 (human, UniProt Q5ZPR3 29-466, limits assumed).
T2 sequence (looked up): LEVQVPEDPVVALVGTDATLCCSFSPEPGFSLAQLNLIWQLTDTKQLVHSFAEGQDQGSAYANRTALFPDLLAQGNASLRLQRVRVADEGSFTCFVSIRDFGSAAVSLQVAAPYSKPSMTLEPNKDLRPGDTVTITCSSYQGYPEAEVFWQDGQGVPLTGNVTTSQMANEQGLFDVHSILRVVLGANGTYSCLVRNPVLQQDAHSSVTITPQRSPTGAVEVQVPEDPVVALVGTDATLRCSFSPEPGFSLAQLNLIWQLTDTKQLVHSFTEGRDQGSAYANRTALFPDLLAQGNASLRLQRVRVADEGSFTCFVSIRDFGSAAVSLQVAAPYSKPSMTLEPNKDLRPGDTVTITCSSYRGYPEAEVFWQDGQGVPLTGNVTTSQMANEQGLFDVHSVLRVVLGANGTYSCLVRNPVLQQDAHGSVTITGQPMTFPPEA
Nature of the experiment: ELISA or FCM (Example 2).

Experiment [2] addresses T3, B7H3 (UniProt Q5ZPR3 29-466, limits assumed).
T3 sequence (looked up): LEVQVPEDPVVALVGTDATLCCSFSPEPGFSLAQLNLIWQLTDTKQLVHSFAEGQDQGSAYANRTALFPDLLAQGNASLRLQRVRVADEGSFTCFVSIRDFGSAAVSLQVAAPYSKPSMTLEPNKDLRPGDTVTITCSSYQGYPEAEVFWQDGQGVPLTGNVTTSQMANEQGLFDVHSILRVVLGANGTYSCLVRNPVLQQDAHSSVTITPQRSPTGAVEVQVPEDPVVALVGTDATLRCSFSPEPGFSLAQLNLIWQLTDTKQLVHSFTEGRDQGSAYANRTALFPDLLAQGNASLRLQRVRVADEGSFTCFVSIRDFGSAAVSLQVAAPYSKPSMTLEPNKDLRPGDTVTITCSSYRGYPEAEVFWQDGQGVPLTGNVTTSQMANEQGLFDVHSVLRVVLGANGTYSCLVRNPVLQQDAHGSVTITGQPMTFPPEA
Nature of the experiment: FCM or ELISA, graded.

The next experiment deals with CD40 (UniProt P25942 21-193, limits assumed). Nature of the experiment: FCM or ELISA, graded.
CD40, sequence (P25942 21-193 limits assumed): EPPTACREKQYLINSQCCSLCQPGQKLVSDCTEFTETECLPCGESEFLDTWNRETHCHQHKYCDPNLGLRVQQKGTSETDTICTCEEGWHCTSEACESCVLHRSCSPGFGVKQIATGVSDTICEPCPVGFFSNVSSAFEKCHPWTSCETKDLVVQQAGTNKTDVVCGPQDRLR

CD3 (human), sequence (chain, as listed by the source): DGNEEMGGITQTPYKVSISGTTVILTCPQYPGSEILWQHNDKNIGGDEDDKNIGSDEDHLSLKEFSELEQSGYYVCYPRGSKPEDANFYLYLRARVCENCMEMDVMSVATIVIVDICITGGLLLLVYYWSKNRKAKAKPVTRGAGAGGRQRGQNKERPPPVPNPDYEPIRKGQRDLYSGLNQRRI

B1: Ly1967 (other)
chain 1: QVQLQQSGAELVRPGSSVKISCKASGYAFSSYWMNWVKQRPGQGLEWIGQIWPGDGDTNYNGKFKGKATLTADESSSTAYMQLSSLASEDSAVYFCARRETTTVGRYYYAMDYWGQGTTVTVSSASTKGPSVFPLAPSSKSTSGGTAALGCLVKDYFPEPVTVSWNSGALTSGVHTFPAVLQSSGLYSLSSVVTVPSSSLGTQTYICNVNHKPSNTKVDKKVEPKSCGGGGSGGGGSGGGGSGGGGSEVQLVESGGGLVQPGGSLRLSCAASGFTFSTYAMNWVRQAPGKGLEWVGRIRSKYNNYATYYADSVKGRFTISRDDSKNSLYLQMNSLKTEDTAVYYCVRHGNFGNSYVSWFAYWGQGTLVTVSSGGGGSDKTHTCPPCPAPEAAGPSVFLFPPKPKDTLMISRTPEVTCVVVDVSHEDPEVKFNWYVDGVEVHNAKTKPREEQYNSTYRVVSVLTVLHQDWLNGKEYKCKVSNKALPAPIEKTISKAKGQPREPQVYTLPPSREEMTKNQVSLWCLVKGFYPSDIAVEWESNGQPENNYKTTPPVLDSDGSFFLYSKLTVDKSRWQQGNVFSCSVMHEALHNHYTQKSLSLSPGGGGGSGGGGSGGGGSGGGGSQVQLVQSGAEVKKPGASVKVSCKASGYTFAGFEMHWVRQAPGQGLEWMGAIDPKTGGTDYNQKFKDRVTMTRDTSISTAYMELSRLRSDDTAVYYCARDLGYFDVWGQGTLVTVSS
chain 2: QVQLQQSGAELVRPGSSVKISCKASGYAFSSYWMNWVKQRPGQGLEWIGQIWPGDGDTNYNGKFKGKATLTADESSSTAYMQLSSLASEDSAVYFCARRETTTVGRYYYAMDYWGQGTTVTVSSASTKGPSVFPLAPSSKSTSGGTAALGCLVKDYFPEPVTVSWNSGALTSGVHTFPAVLQSSGLYSLSSVVTVPSSSLGTQTYICNVNHKPSNTKVDKKVEPKSCGGGGSGGGGSGGGGSGGGGSQAVVTQEPSLTVSPGGTVTLTCRSSTGAVTTSNYANWVQQKPGQAPRGLIGGTNKRAPWTPARFSGSLLGGKAALTITGAQAEDEADYYCALWYSNLWVFGGGTKLTVLGGGGSDKTHTCPPCPAPEAAGPSVFLFPPKPKDTLMISRTPEVTCVVVDVSHEDPEVKFNWYVDGVEVHNAKTKPREEQYNSTYRVVSVLTVLHQDWLNGKEYKCKVSNKALPAPIEKTISKAKGQPREPQVYTLPPSREEMTKNQVSLSCAVKGFYPSDIAVEWESNGQPENNYKTTPPVLDSDGSFFLVSKLTVDKSRWQQGNVFSCSVMHEALHNHYTQKSLSLSPGGGGGSGGGGSGGGGSGGGGSDIQMTQSPSSLSASVGDRVTITCRASQDIRSNLNWYQQKPGGAVKLLIYYTSRLHSGVPSRFSGSGSGTDYTLTISSLQPEDFATYFCQQSEKLPRTFGGGTKVEIR
light: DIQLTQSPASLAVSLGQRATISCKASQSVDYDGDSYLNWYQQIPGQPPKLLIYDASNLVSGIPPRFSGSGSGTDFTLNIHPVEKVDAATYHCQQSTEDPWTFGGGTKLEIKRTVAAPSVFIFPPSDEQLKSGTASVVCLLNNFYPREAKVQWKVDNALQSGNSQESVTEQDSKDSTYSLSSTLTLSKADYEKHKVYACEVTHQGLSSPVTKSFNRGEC
notes: Tri-specific antibody: CD19 Fabs, central CD3 Fv, terminal CD137 Fv
Turning to B1, in the experiment with CD3, the EC50 is 1.56 µg/mL. Also, the binding result in the experiment with CD137 is reported as “binds”.

B2: Ly1963 (other)
chain 1: QVQLVQSGAEVKKPGASVKVSCKASGYTFTSYVMHWVRQKPGQGLEWIGYINPYNEGTESTDKFKGRATMTSDKSTSTVYMELSSLRSEDTAVYYCASIYYGYEGTYFGVWGQGTLVTVSSASTKGPSVFPLAPSSKSTSGGTAALGCLVKDYFPEPVTVSWNSGALTSGVHTFPAVLQSSGLYSLSSVVTVPSSSLGTQTYICNVNHKPSNTKVDKKVEPKSCGGGGSGGGGSGGGGSGGGGSEVQLVESGGGLVQPGGSLRLSCAASGFTFSTYAMNWVRQAPGKGLEWVGRIRSKYNNYATYYADSVKGRFTISRDDSKNSLYLQMNSLKTEDTAVYYCVRHGNFGNSYVSWFAYWGQGTLVTVSSGGGGSDKTHTCPPCPAPEAAGPSVFLFPPKPKDTLMISRTPEVTCVVVDVSHEDPEVKFNWYVDGVEVHNAKTKPREEQYNSTYRVVSVLTVLHQDWLNGKEYKCKVSNKALPAPIEKTISKAKGQPREPQVYTLPPSREEMTKNQVSLWCLVKGFYPSDIAVEWESNGQPENNYKTTPPVLDSDGSFFLYSKLTVDKSRWQQGNVFSCSVMHEALHNHYTQKSLSLSPGGGGGSGGGGSGGGGSGGGGSQVQLVQSGAEVKKPGASVKVSCKASGYTFAGFEMHWVRQAPGQGLEWMGAIDPKTGGTDYNQKFKDRVTMTRDTSISTAYMELSRLRSDDTAVYYCARDLGYFDVWGQGTLVTVSS
chain 2: QVQLVQSGAEVKKPGASVKVSCKASGYTFTSYVMHWVRQKPGQGLEWIGYINPYNEGTESTDKFKGRATMTSDKSTSTVYMELSSLRSEDTAVYYCASIYYGYEGTYFGVWGQGTLVTVSSASTKGPSVFPLAPSSKSTSGGTAALGCLVKDYFPEPVTVSWNSGALTSGVHTFPAVLQSSGLYSLSSVVTVPSSSLGTQTYICNVNHKPSNTKVDKKVEPKSCGGGGSGGGGSGGGGSGGGGSQAVVTQEPSLTVSPGGTVTLTCRSSTGAVTTSNYANWVQQKPGQAPRGLIGGTNKRAPWTPARFSGSLLGGKAALTITGAQAEDEADYYCALWYSNLWVFGGGTKLTVLGGGGSDKTHTCPPCPAPEAAGPSVFLFPPKPKDTLMISRTPEVTCVVVDVSHEDPEVKFNWYVDGVEVHNAKTKPREEQYNSTYRVVSVLTVLHQDWLNGKEYKCKVSNKALPAPIEKTISKAKGQPREPQVYTLPPSREEMTKNQVSLSCAVKGFYPSDIAVEWESNGQPENNYKTTPPVLDSDGSFFLVSKLTVDKSRWQQGNVFSCSVMHEALHNHYTQKSLSLSPGGGGGSGGGGSGGGGSGGGGSDIQMTQSPSSLSASVGDRVTITCRASQDIRSNLNWYQQKPGGAVKLLIYYTSRLHSGVPSRFSGSGSGTDYTLTISSLQPEDFATYFCQQSEKLPRTFGGGTKVEIR
light: EIVLTQSPATLSLSPGERATLSCRASSSVSYMHWYQQKPGQAPRPWIYATSNLASGIPARFSGSRSGTDYTLTISSLEPEDFAVYYCQQWSSNTLTFGGGTKVEIKRTVAAPSVFIFPPSDEQLKSGTASVVCLLNNFYPREAKVQWKVDNALQSGNSQESVTEQDSKDSTYSLSSTLTLSKADYEKHKVYACEVTHQGLSSPVTKSFNRGEC
notes: Tri-specific antibody: B7H3 Fabs, central CD3 Fv, terminal CD137 Fv; Flexible linker is (G4S)4
With B2, the binding result with B7H3 [1] and with CD137 was “binds” each time. The molecule further came in with an EC50 with CD3 of 0.74 µg/mL.

B3: Ly2424 (bispecific antibody, human IgG1, kappa)
heavy 1: not shown
heavy 2: QVQLVQSGAEVKKPGASVKVSCKASGYTFTSYVMHWVRQKPGQGLEWIGYINPYNEGTESTDKFKGRATMTSDKSTSTVYMELSSLRSEDTAVYYCASIYYGYEGTYFGVWGQGTLVTVSSASTKGPSVFPLAPSSKSTSGGTAALGCLVKDYFPEPVTVSWNSGALTSGVHTFPAVLQSSGLYSLSSVVTVPSSSLGTQTYICNVNHKPSNTKVDKKVEPKSCDKTHTCPPCPAPEAAGPSVFLFPPKPKDTLMISRTPEVTCVVVDVSHEDPEVKFNWYVDGVEVHNAKTKPREEQYNSTYRVVSVLTVLHQDWLNGKEYKCKVSNKALPAPIEKTISKAKGQPREPQVYTLPPSREEMTKNQVSLSCAVKGFYPSDIAVEWESNGQPENNYKTTPPVLDSDGSFFLVSKLTVDKSRWQQGNVFSCSVMHEALHNRFTQKSLSLSPGGGGGSGGGGSGGGGSGGGGSDIQMTQSPSSVSASVGDRVTITCRASQGIYSWLAWYQQKPGKAPNLLIYTASTLQSGVPSRFSGSGSGTDFTLTISSLQPEDFATYYCQQANIFPLTFGGGTKVEIK
light: EIVLTQSPATLSLSPGERATLSCRASSSVSYMHWYQQKPGQAPRPWIYATSNLASGIPARFSGSRSGTDYTLTISSLEPEDFAVYYCQQWSSNTLTFGGGTKVEIKRTVAAPSVFIFPPSDEQLKSGTASVVCLLNNFYPREAKVQWKVDNALQSGNSQESVTEQDSKDSTYSLSSTLTLSKADYEKHKVYACEVTHQGLSSPVTKSFNRGEC
notes: B7H3 Fabs x terminal CD40 Fv (TM383)
For B3, the binding result with B7H3 [2] and with CD40 was “binds” in each case.

B4: Ly2279 (bispecific antibody)
heavy 1: not shown
heavy 2: QVQLVQSGAEVKKPGASVKVSCKASGYTFTSYVMHWVRQKPGQGLEWIGYINPYNEGTESTDKFKGRATMTSDKSTSTVYMELSSLRSEDTAVYYCASIYYGYEGTYFGVWGQGTLVTVSSASTKGPSVFPLAPSSKSTSGGTAALGCLVKDYFPEPVTVSWNSGALTSGVHTFPAVLQSSGLYSLSSVVTVPSSSLGTQTYICNVNHKPSNTKVDKKVEPKSCGGGGSGGGGSGGGGSGGGGSDIQMTQSPSSVSASVGDRVTITCRASQGIYSWLAWYQQKPGKAPNLLIYTASTLQSGVPSRFSGSGSGTDFTLTISSLQPEDFATYYCQQANIFPLTFGGGTKVEIKGGGGSDKTHTCPPCPAPEAAGPSVFLFPPKPKDTLMISRTPEVTCVVVDVSHEDPEVKFNWYVDGVEVHNAKTKPREEQYNSTYRVVSVLTVLHQDWLNGKEYKCKVSNKALPAPIEKTISKAKGQPREPQVYTLPPSREEMTKNQVSLSCAVKGFYPSDIAVEWESNGQPENNYKTTPPVLDSDGSFFLVSKLTVDKSRWQQGNVFSCSVMHEALHNRFTQKSLSLSPG
light: EIVLTQSPATLSLSPGERATLSCRASSSVSYMHWYQQKPGQAPRPWIYATSNLASGIPARFSGSRSGTDYTLTISSLEPEDFAVYYCQQWSSNTLTFGGGTKVEIKRTVAAPSVFIFPPSDEQLKSGTASVVCLLNNFYPREAKVQWKVDNALQSGNSQESVTEQDSKDSTYSLSSTLTLSKADYEKHKVYACEVTHQGLSSPVTKSFNRGEC
notes: B7H3 Fabs x central CD40 Fv (TM383)
Consider B4, for which the binding result in the experiment with B7H3 [2] is “binds”.

B5: TM559 (antibody, V domains shown)
VH: EVQLVESGGGLVQPGGSLRLSCAASGFTFTNYGLHWVRQAPGKGLEWVSSISPSGGVTYYRDSVKGRFTISRDNSKNTLYLQMNSLRAEDTAVYYCAKPFLGWGGANWIAHWGQGTLVTVSS
VL: DIQMTQSPSSLSASVGDRVTITCLASEDISNDLAWYQQKPGKAPKLLIYFVDRLLDGVPSRFSGSGSGTDFTLTISSLQPEDFATYYCQQSYKYPPTFGQGTKLEIK
notes: Parent mAb; also called Anti-CD40 TM559
As to B5, the binding result in the experiment with CD40 is “binds”.
